This data set can be described thus: yeast display, Sf9 membrane polyspecificity reagent, FACS + sequencing; frameworks hold sequencing errors. In short, it runs like this:
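Galactose-induced (36–48 hours) yeast carrying a synthetic nanobody display library were exposed to 10% biotinylated, detergent-solubilized Sf9 membrane reagent at 4 °C for 1 hour. FACS followed streptavidin microbead enrichment, using low and high (top ~1%) gates for expression (anti-HA) and reagent binding (streptavidin). Colony PCR, MiSeq 2 × 250 sequencing and CDR-length filtering followed. Labels for polyreactivity reflect the gate of origin.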
For the sequence “QVQLVESGGGLVQAGGSLRLSCAASGSIFTLYAIGWSRQAPGKERELVAAISRRGGSTYYADSVKGRFTISRDNAKNTVYLQMNSLKPEDTAVYYCNAYRSNYLIGSSSYGLDYWGHGTQVTVSS”, the “polyreactivity (PSR sort gate)” value is “high polyreactivity”. As for “QVQLVESGGGLVQAGGSLRLSCAASGSIFTLYAMGWYRQAPGKERELVAAIDSGGNTNYADSVKGRFTISRDNAKNTVYLQMNSLKPEDTAVYYCAKRHATEFDYWGQGTQVTVSS”, the entry is “low polyreactivity”; as for “QVQLVESGGGLVQAGGSLRLSCAASGSIFTLYAMGWYRQAPGKERELVAAITWTGGSTYYADSVKGRFTISRDNAKNTVYLQMNSLKPEDTAVYYCATDGYWQSNGAFYYVARHGGYWGQGTQVTVSS”, “low polyreactivity”. For “QVQLVESGGGLVQAGGSLRLSCAASGSIFTLYVMGWYRQAPGKERELVAAITWSGGSTYYADSVKGRFTISRDNAKNTVYLQMNSLKTEDPAVYYCNADVRWDSQDYYYWGQGTQVTVSS”, the “polyreactivity (PSR sort gate)” value was “low polyreactivity”. As for “QVQLVESGGGLVQAGGSLRLSCAASGSIFTNAMGWYIQAPGKERELVAAISSSGGSTYYADSVKGRFTISRDNANNTVYLQMNSLKPEDTAVYYCSADHFGGRDYWGQGTQVTVSS”, the “polyreactivity (PSR sort gate)” value was “low polyreactivity”.

Consider “QVQLVESGGGLVQAGGSLRLSCAASGSIFTNYAMGWYRQAPGKERELVATITYYADSVKGRFTISRDNAKNTVYLQMNSLKPVDTAVYYCAAVRSGPGYDYWGQGTQVTVSS”, for which the “polyreactivity (PSR sort gate)” value is “low polyreactivity”.

Take “QVQLVESGGGLVQAGGSLRLSCAASGSIFTPNAMGWYRQAPGKERELVAAISQSGGSTYYADSVKGRFTISRDNAMNTVYLQMNSLKPEDTAVYYCGASVRHRGYDYWGQGTQVTVSS”: the “polyreactivity (PSR sort gate)” value is “high polyreactivity”. For “QVQLVESGGGLVQAGGSLRLSCAASGSIFTPNAMGWYRQAPGKERELVAAISSSSDRTYYADSVKGRFTLSRDNAKNTVYLQMNSLKPEDTAVYYCAAYAQKRYYWGQGTQVTVSS”, the “polyreactivity (PSR sort gate)” value is “high polyreactivity”.

As for “QVQLVESGGGLVQAGGSLRLSCAASGSIFTPNTMGWYRQAPGKEREFVAAINTSGSTNYADSVKGRFTISRDNAKNTVYLQLNSLKPEDTAVYYCAAGIVVTGYDYWGQGTQVTVSS”, the “polyreactivity (PSR sort gate)” value is “low polyreactivity”. Consider “QVQLVESGGGLVQAGGSLRLSCAASGSIFTPYAMGWYRQAPAKERELVAANTSSGGSTNYPDSVKGRFTISRDKAKSTVYLQMNSLKPEDTAVYYCAADQDLGYPLFDYWGQRTQVTVSS”, for which the “polyreactivity (PSR sort gate)” value is “low polyreactivity”. On to “QVQLVESGGGLVQAGGSLRLSCAASGSIFTPYAMGWYRQAPGKERELVAAISRSGGSTYYADSVKGRFTISRDNAKNTVYLQMNSLKPEDTAVYYCAVVVYDIYGYESDYWGQGTQVTVSS”, for which the “polyreactivity (PSR sort gate)” value is listed as “low polyreactivity”. As for “QVQLVESGGGLVQAGGSLRLSCAASGSIFTPYAMGWYRQAPGKERELVATISWSGGRTYYADSVKGRFTISRDNAMYTVYLQMYSLKPEDTAVYYCAARGYSSEYDYWGQGTQVTVSS”, the entry is “high polyreactivity”; as for “QVQLVESGGGLVQAGGSLRLSCAASGSIFTPYVMGWYRQAPGKERELVAAISKRGTRTYYADSVTGRFTISRDNAKNTVYFQMNSLKPEDTAVYYCNAAVDYGSEHDYWGQGTQVTVSS”, “high polyreactivity”; as for “QVQLVESGGGLVQAGGSLRLSCAASGSIFTQYAMGWYREATGKERELVAAITSGGSTYADSVKGRFTISRDNANNTVYLQMNSLKPEDTAVYYCATQYSYRGVTFYYWGQGTQVTVSS”, “low polyreactivity”. As for “QVQLVESGGGLVQAGGSLRLSCAASGSIFTRNAMGWYRQAPGKERELVAAISRGGGTNYADSVKGRFTISRDNAKNTVYLQMNSLKPEDTAVYYCAARVGYPYPAGYDYWGQGTQVTVSS”, the “polyreactivity (PSR sort gate)” value is listed as “high polyreactivity”.

With “QVQLVESGGGLVQAGGSLRLSCAASGSIFTRNAMGWYRQAPGKERELVAAISRGGGTNYADSVKGRFTISRDNAKNTVYLQMNSLKPEDTAVYYCAKGWLPNGIPTYFRPYGLDYWGQGTQVTVSS”, the “polyreactivity (PSR sort gate)” value is given as “high polyreactivity”.

The record behind these values is the nanobody polyreactivity screen of Harvey et al. (2022).
